The values below come from US20240301385, “DNA MODIFYING ENZYMES AND ACTIVE FRAGMENTS AND VARIANTS THEREOF AND METHODS OF USE” (LIFEEDIT THERAPEUTICS, INC., published 2024).

Holding throughout (conditions): tags: SV40 NLS, 3xFLAG N-term; nucleoplasmin NLS C-term
One series concerns the target nAPG07433.1-APG05840 (synthetic). Briefly: cell_activity; HEK293FT; C>G predominant; PAM SEQ 152.
The target in the next series is T1, APG30127-L32-nAPG07433.1 (synthetic).
T1 chain: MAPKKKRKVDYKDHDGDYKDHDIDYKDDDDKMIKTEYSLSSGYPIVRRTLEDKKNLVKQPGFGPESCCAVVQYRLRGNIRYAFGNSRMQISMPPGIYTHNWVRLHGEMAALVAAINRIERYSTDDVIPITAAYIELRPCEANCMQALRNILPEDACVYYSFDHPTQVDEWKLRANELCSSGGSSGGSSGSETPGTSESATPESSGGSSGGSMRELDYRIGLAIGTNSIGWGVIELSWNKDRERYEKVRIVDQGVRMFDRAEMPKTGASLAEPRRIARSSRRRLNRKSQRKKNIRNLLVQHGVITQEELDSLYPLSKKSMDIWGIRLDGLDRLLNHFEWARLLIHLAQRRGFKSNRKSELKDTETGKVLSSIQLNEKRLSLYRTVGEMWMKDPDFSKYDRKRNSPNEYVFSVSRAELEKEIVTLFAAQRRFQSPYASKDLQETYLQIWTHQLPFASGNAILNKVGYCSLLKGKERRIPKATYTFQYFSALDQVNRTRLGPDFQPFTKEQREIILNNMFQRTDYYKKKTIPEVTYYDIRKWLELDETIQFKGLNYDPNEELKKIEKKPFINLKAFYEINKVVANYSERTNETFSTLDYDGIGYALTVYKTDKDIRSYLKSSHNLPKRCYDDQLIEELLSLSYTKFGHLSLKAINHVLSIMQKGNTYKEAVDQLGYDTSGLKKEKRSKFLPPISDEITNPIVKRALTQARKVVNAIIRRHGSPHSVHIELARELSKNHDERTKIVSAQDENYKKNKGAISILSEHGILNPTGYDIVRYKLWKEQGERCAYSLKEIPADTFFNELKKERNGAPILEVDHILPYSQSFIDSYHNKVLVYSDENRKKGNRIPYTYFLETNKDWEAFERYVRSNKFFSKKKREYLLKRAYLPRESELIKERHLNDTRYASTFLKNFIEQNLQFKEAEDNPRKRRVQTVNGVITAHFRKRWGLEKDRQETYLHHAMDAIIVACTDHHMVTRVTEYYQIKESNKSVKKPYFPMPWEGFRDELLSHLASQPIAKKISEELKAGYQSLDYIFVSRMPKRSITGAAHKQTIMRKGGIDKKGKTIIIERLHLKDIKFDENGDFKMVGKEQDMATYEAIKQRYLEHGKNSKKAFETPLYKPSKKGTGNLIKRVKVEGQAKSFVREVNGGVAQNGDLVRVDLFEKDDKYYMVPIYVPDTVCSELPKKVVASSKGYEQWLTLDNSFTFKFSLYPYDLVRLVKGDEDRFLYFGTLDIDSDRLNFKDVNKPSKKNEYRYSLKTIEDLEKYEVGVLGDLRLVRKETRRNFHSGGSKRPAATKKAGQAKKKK
Briefly: cell_activity; HEK293FT; PAM SEQ 152. The procedure: (§1) 500 ng of plasmid comprising an expression cassette comprising a coding sequence for each fusion protein shown in Table 3 and 500 ng of plasmid comprising an expression cassette encoding an sgRNA shown in Table 4 were co-transfected into HEK293FT cells at 75-90% confluency in 24-well plates using Lipofectamine 2000 reagent (Life Technologies). Cells were then incubated at […] for 72 h. Following incubation, genomic DNA was then extracted using NucleoSpin 96 Tissue (Macherey-Nagel) following the manufacturer's protocol. The genomic region flanking the targeted genomic site was PCR amplified using the primers in Table 4 and products were purified using ZR-96 DNA Clean and Concentrator (Zymo Research) following the manufacturer's protocol. The purified PCR products were then sent for Next Generation Sequencing on Illumina MiSeq (2×250). Results were analyzed for INDEL formation or introduction of % specific cytosine mutations.
(§2) The position of each nucleotide in the target sequence was determined. “C17” indicates, for example, a cytosine at position 17 of the target sequence. The position of each nucleotide in the target sequence was determined by numbering the first nucleotide in the target sequence closest to the PAM as position 1, and the position number increases in the 3′ direction away from the PAM sequence.

For another series, the target named is T2, APG30129-L32-nAPG07433.1 (synthetic).
T2 chain: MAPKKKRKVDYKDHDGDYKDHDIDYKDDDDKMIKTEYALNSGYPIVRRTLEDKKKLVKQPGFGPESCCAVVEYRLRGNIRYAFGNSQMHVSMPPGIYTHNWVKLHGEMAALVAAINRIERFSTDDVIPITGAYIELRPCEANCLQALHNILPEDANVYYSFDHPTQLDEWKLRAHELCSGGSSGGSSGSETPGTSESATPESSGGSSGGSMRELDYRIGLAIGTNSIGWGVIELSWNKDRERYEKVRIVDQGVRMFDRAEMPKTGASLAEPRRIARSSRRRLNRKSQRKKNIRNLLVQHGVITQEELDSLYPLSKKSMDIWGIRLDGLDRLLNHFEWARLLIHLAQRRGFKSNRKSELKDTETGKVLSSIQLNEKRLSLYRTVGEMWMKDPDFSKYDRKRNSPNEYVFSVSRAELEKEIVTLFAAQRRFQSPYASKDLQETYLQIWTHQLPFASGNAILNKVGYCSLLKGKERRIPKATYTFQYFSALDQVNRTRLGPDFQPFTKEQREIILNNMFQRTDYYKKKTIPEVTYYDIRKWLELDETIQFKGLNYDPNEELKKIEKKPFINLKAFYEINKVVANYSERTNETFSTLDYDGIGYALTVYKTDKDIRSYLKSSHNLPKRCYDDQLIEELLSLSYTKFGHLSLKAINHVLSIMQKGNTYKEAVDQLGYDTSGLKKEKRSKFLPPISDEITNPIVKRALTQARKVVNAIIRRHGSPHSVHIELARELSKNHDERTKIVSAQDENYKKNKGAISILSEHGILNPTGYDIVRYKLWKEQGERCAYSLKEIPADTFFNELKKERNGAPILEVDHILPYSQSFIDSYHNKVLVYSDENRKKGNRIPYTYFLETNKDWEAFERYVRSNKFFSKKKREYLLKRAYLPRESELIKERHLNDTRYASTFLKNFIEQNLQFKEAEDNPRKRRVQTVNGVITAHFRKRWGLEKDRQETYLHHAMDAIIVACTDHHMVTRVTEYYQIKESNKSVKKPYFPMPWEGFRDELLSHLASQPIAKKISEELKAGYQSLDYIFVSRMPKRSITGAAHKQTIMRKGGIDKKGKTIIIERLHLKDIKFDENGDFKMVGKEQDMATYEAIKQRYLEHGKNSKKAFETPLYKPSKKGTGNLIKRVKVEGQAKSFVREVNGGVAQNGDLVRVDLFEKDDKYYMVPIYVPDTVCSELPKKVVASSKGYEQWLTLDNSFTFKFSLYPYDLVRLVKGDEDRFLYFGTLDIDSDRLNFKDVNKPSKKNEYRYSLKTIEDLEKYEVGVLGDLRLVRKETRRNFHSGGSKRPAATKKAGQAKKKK
Briefly: cell_activity; HEK293FT; PAM SEQ 152. The procedure:
as §1, §2

B1: SGN000928 sgRNA ; SGN000928 target (ssRNA ; dsDNA)
RNA: GCUUCUACUCUUGGCUUACAACCCAGUCAUAGUUCCAUGAAAGCCAAAAGUGGCUUUGAUGUUUCUAUGAUAAGGGUUUCGGCCCGUGGCGUCGGGGAUCGCCUGCCCAUUCCGAUGGGCUUCUCCCCAUUUAUU
DNA 1: GCTTCTACTCTTGGCTTACAACCCA
DNA 2: TGGGTTGTAAGCCAAGAGTAGAAGC
In the series with nAPG07433.1-APG05840, B1 gave an activity of 20.9 % mutated reads.

B2: SGN000186 sgRNA ; SGN000186 target (ssRNA ; dsDNA)
RNA: GGACAGUGCGCAUCUCCCUGGUCAUAGUUCCAUUAAAGCCAAAAGUGGCUUUGAUGUUUCUAUGAUAAGGGUUUCGACCCGUGGCGUCGGGGAUCGCCUGCCCAUUGAAAUGGGCUUCUCCCCAUUUAUU
DNA 1: GGACAGTGCGCATCTCCCTG
DNA 2: CAGGGAGATGCGCACTGTCC
Regarding B2, the results for the activity with APG30127-L32-nAPG07433.1 and with APG30129-L32-nAPG07433.1 were 14.3 % mutated reads and 11.4 % mutated reads, respectively.
